Test results: patent US8618251

Columns and labels:
[1] = molecular target: soluble hFcγRIIA^131H (human) (UniProt P12318); test: SPR Biacore T100, steady state, antibody immobilised
[2] = molecular target: soluble hFcγRIIA^131R (human) (UniProt P12318); test: as above
soluble hFcγRIIB (human) [3] = molecular target: soluble hFcγRIIB (human) (UniProt P31994); test: as above
[4] = molecular target: soluble hFcγRIIA^131H (human) (UniProt P12318); test: SPR Biacore T100; reference of the fold not given
[5] = molecular target: soluble hFcγRIIA^131R (human) (UniProt P12318); test: SPR Biacore T100; reference of the fold not given
soluble hFcγRIIB (human) [6] = molecular target: soluble hFcγRIIB (human) (UniProt P31994); test: SPR Biacore T100; reference of the fold not given

Chain of soluble hFcγRIIA^131H (human) (P12318 34-217): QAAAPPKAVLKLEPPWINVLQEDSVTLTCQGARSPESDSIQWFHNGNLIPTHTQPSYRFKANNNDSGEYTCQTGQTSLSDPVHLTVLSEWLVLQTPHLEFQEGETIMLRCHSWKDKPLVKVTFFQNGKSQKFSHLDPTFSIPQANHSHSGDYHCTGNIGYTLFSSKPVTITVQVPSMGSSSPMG
Chain of soluble hFcγRIIB (human) (P31994 43-217 limits assumed): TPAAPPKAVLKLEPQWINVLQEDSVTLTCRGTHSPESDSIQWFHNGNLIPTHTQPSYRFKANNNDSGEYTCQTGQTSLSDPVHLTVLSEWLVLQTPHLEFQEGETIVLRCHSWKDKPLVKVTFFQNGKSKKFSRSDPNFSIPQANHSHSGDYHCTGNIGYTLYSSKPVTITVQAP
Chain of soluble hFcγRIIA^131R (human) (P12318 34-217 H167R): as the sequence (P12318 34-217) above, with H134R counted along it

B1: 4-4-20 hIgG1 Fc mutant L163P-S183G-K222E-G236A-N276D-S298G-T299A-D312G (antibody, part only; not given: 4-4-20 variable domains, not shown: another chain or arm of the molecule)
constant: ASTKGPSVFPLAPSSKSTSGGTAALGCLVKDYFPEPVTVSWNSGAPTSGVHTFPAVLQSSGLYSLGSVVTVPSSSLGTQTYICNVNHKPSNTKVDKRVEPKSCDETHTCPPCPAPELLAGPSVFLFPPKPKDTLMISRTPEVTCVVVDVSHEDPEVKFDWYVDGVEVHNAKTKPREEQYNGAYRVVSVLTVLHQGWLNGKEYKCKVSNKALPAPIEKTISKAKGQPREPQVYTLPPSRDELTKNQVSLTCLVKGFYPSDIAVEWESNGQPENNYKTTPPVLDSDGSFFLYSKLTVDKSRWQQGNVFSCSVMHEALHNHYTQKSLSLSPGK
B1 was tested. Which Kd [1] did it give?
Its Kd is 1340 nM.

And the Kd [2]?
Its Kd is 781 nM.

And the Kd (soluble hFcγRIIB (human) [3])?
The Kd was 8480 nM.

What about the Fold change in affinity [4] of the same binder?
The Fold change in affinity was 2.6 fold.

And the Fold change in affinity [5]?
Its Fold change in affinity is 7.4 fold.

What about the Fold change in affinity (soluble hFcγRIIB (human) [6]) of the same binder?
The Fold change in affinity was 1.3 fold.
